Reference: patent US20200400662A1 (ALX ONCOLOGY, published 2020)

Target: Drug A
Test: cell-based or functional assay

B1: Fab of Antibody B (Fab, V domains shown)
VH: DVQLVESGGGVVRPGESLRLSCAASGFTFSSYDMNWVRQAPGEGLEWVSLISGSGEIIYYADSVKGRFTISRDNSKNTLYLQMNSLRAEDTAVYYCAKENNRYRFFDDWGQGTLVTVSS
VL: ETVLTQSPGTLTLSPGERATLTCRASQSVYTYLAWYQEKPGQAPRLLIYGASSRATGIPDRFSGSGSGTEFTLTISSLQSEDFAVYYCQQYYDRPPLTFGGGTKVEIK
hemagglutination of Drug A-coated erythrocytes with anti-IgG; molar excess of Fab that prevented it: 400 fold molar excess relative to Drug A
